The text below walks through data of article PMC8280820, “Phospho‐regulation, nucleotide binding and ion access control in potassium‐chloride cotransporters” (The EMBO Journal, 2021).

This data set deals with the molecule itself. The data set is described as follows: cryo-EM structure; single-particle cryo-EM of the purified transporter in digitonin, 150 mM NaCl, 20 mM HEPES pH 7.5 (KCC3b-PM also in KCl); homodimer.

By stoichiometry N is commonly meant the number of molecules, sites or subunits per partner or assembly.

B1: KCC1Δ19 (human potassium-chloride cotransporter KCC1, isoform A, N-terminally deleted, L20-S1085) (domain or fragment, UniProt Q9UP95 20-1085, looked up)
chain: LEGLSWVDYGERAELDDSDGHGNHRESSPFLSPLEASRGIDYYDRNLALFEEELDIRPKVSSLLGKLVSYTNLTQGAKEHEEAESGEGTRRRAAEAPSMGTLMGVYLPCLQNIFGVILFLRLTWMVGTAGVLQALLIVLICCCCTLLTAISMSAIATNGVVPAGGSYFMISRSLGPEFGGAVGLCFYLGTTFAAAMYILGAIEILLTYIAPPAAIFYPSGAHDTSNATLNNMRVYGTIFLTFMTLVVFVGVKYVNKFASLFLACVIISILSIYAGGIKSIFDPPVFPVCMLGNRTLSRDQFDICAKTAVVDNETVATQLWSFFCHSPNLTTDSCDPYFMLNNVTEIPGIPGAAAGVLQENLWSAYLEKGDIVEKHGLPSADAPSLKESLPLYVVADIATSFTVLVGIFFPSVTGIMAGSNRSGDLRDAQKSIPVGTILAIITTSLVYFSSVVLFGACIEGVVLRDKYGDGVSRNLVVGTLAWPSPWVIVIGSFFSTCGAGLQSLTGAPRLLQAIAKDNIIPFLRVFGHGKVNGEPTWALLLTALIAELGILIASLDMVAPILSMFFLMCYLFVNLACAVQTLLRTPNWRPRFKYYHWALSFLGMSLCLALMFVSSWYYALVAMLIAGMIYKYIEYQGAEKEWGDGIRGLSLSAARYALLRLEEGPPHTKNWRPQLLVLLKLDEDLHVKYPRLLTFASQLKAGKGLTIVGSVIQGSFLESYGEAQAAEQTIKNMMEIEKVKGFCQVVVASKVREGLAHLIQSCGLGGMRHNSVVLGWPYGWRQSEDPRAWKTFIDTVRCTTAAHLALLVPKNIAFYPSNHERYLEGHIDVWWIVHDGGMLMLLPFLLRQHKVWRKCRMRIFTVAQMDDNSIQMKKDLAVFLYHLRLEAEVEVVEMHNSDISAYTYERTLMMEQRSQMLRQMRLTKTEREREAQLVKDRHSALRLESLYSDEEDESAVGADKIQMTWTRDKYMTETWDPSHAPDNFRELVHIKPDQSNVRRMHTAVKLNEVIVTRSHDARLVLLNMPGPPRNSEGDENYMEFLEVLTEGLERVLLVRGGGREVITIYS
modifications: phosphoserine at S88, S734 and S1050 (by proteomics analysis); not phosphorylated at T926/T983
notes: KCC1 (SLC12A4), human, isoform A, residues L20-S1085; Cloned into the pHTBV vector with and without GFP; also called KCC1 (construct Δ19); Δ19-deleted human KCC1; not shown: twin-Strep, C-terminal, cleaved; His10, C-terminal, cleaved
With B1, the “stoichiometry N” value amounted to 2.

B2: KCC3b-PM (human potassium-chloride cotransporter KCC3 isoform B, phospho-mimetic S45D/T940D/T997D, M1-S1099) (natural protein, UniProt Q9UHW9-2 1-1099, looked up)
chain: MPHFTVTKVEDPEEGAAASISQEPSLADIKARIQDSDEPDLSQNDITGEHSQLLDDGHKKARNAYLNNSNYEEGDEYFDKNLALFEEEMDTRPKVSSLLNRMANYTNLTQGAKEHEEAENITEGKKKPTKTPQMGTFMGVYLPCLQNIFGVILFLRLTWVVGTAGVLQAFAIVLICCCCTMLTAISMSAIATNGVVPAGGSYFMISRALGPEFGGAVGLCFYLGTTFAAAMYILGAIEIFLVYIVPRAAIFHSDDALKESAAMLNNMRVYGTAFLVLMVLVVFIGVRYVNKFASLFLACVIVSILAIYAGAIKSSFAPPHFPVCMLGNRTLSSRHIDVCSKTKEINNMTVPSKLWGFFCNSSQFFNATCDEYFVHNNVTSIQGIPGLASGIITENLWSNYLPKGEIIEKPSAKSSDVLGSLNHEYVLVDITTSFTLLVGIFFPSVTGIMAGSNRSGDLKDAQKSIPIGTILAILTTSFVYLSNVVLFGACIEGVVLRDKFGDAVKGNLVVGTLSWPSPWVIVIGSFFSTCGAGLQSLTGAPRLLQAIAKDNIIPFLRVFGHSKANGEPTWALLLTAAIAELGILIASLDLVAPILSMFFLMCYLFVNLACALQTLLRTPNWRPRFRYYHWALSFMGMSICLALMFISSWYYAIVAMVIAGMIYKYIEYQGAEKEWGDGIRGLSLSAARFALLRLEEGPPHTKNWRPQLLVLLKLDEDLHVKHPRLLTFASQLKAGKGLTIVGSVIVGNFLENYGEALAAEQTIKHLMEAEKVKGFCQLVVAAKLREGISHLIQSCGLGGMKHNTVVMGWPNGWRQSEDARAWKTFIGTVRVTTAAHLALLVAKNISFFPSNVEQFSEGNIDVWWIVHDGGMLMLLPFLLKQHKVWRKCSIRIFTVAQLEDNSIQMKKDLATFLYHLRIEAEVEVVEMHDSDISAYTYERDLMMEQRSQMLRHMRLSKTERDREAQLVKDRNSMLRLTSIGSDEDEETETYQEKVHMDWTKDKYMASRGQKAKSMEGFQDLLNMRPDQSNVRRMHTAVKLNEVIVNKSHEAKLVLLNMPGPPRNPEGDENYMEFLEVLTEGLERVLLVRGGGSEVITIYS
modifications: phosphorylated at S685, T727, S930 and Y1070 (by proteomics analysis; the paper says likely only in a subset of the particles for some sites); not phosphorylated at T106/T109
notes: KCC3 (SLC12A6), human, isoform B (KCC3b), residues M1-S1099 (printed length 1099); numbers count on: the B-isoform; Synthesized gene (GenScript, Twist Bioscience) subcloned into pHTBV with C-terminal twin-strep, 10-His and GFP; also called KCC3‐PM; KCC3b (construct PM); not shown: twin-Strep, C-terminal, cleaved; His10, C-terminal, cleaved
B2: the “stoichiometry N” value was found to be 2.
